According to the supplement of paper PMC7877785:
± gives the uncertainty stated by the source.

Experiment: self-splicing fitness, log relative to wild type (ln ratio); higher = more splicing; Tetrahymena group I intron in knt gene, E. coli kanamycin selection, DiMSum; sequences stand for … in CUCUCU…GGAGGGAAAAGUUAUCAGGCAUGCACCUGGUAGCUAGUCUUUAAACCAAUAGAUUGCAUCGGUUUAAAAGGCAAGACCGUCAAAUUGCGGGAAAGGGGUCAACAGCCGUUCAGUACCAAGUCUCAGGGGAAACUUUGAGAUGGCCUUGCAAAGGGUAUGGUAAUAAGCUGACGGACAUGGUCCUAACCACGCAGCCAAGUCCUAAGUCAACAGAUCUUCUGUUGAUAUGGAUGCAGUUCACAGACUAAAUGUCGGUCGGGGAAGAUGUAUUCUUCUCAUAAGAUAUAGUCGGACCUCUCCUUAAUGGGAGCUAGCGGAUGAAGUGAUGCAACACUGGAGCCGCUGGGAACUAAUUUGUAUGCGAAAGUAUAUUGAUUAGUUUUGGAGUACUCGUGGUCG
Outline: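 DiMSum derived fitness as the error-weighted combination of fold changes across replicates, kanamycin versus no kanamycin, normalised to wild type. E. coli BL21(DE3) held the library, which randomised all eight P1ex-region intron nucleotides within the knt kanamycin-resistance gene on pET-22b(+). Six replicate transformations grew overnight at 37°C or 30°C on LB agar with or without 25 μg/mL kanamycin, also containing 100 μg/mL carbenicillin, 50 μM IPTG and 0.2% rhamnose, and pooled colonies were amplicon-sequenced on an Illumina HiSeq 2500.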

Row | Sequence | self-splicing fitness (ln) (30 °C) | self-splicing fitness (ln) (37 °C)
1 | UAGGAGCAAUAUUACGAGCG | -3.58 ± 0.4 | -1.31 ± 0.35
2 | UAGGAGCAAUAUUACGAUUU | -2.44 ± 0.15 | -1.4 ± 0.24
3 | UAGGAGCAAUAUUACGCUUA | -1.49 ± 0.18 | -0.834 ± 0.27
4 | UAGGAGCAAUAUUACGGCAA | – | -1.07 ± 0.2
5 | UAGGAGCAAUAUUACGGCGA | -1.51 ± 0.17 | -1.46 ± 0.18
6 | UAGGAGCAAUAUUACGGGUU | -4.52 ± 0.42 | -2.56 ± 0.27
7 | UAGGAGCAAUAUUACGUAGA | -1.5 ± 0.2 | -1.06 ± 0.16
8 | UAGGAGCAAUAUUACGUCCG | -0.262 ± 0.28 | 1.13 ± 0.28
9 | UAGGAGCAAUAUUACGUGGU | -3.87 ± 0.29 | -2.26 ± 0.24
10 | UAGGAGCAAUAUUACGUGUG | -2.86 ± 0.15 | -1.72 ± 0.15
11 | UAGGAGCAAUAUUACGUUAA | -1.4 ± 0.28 | -2.55 ± 0.39
12 | UAGGAGCAAUAUUACGUUGU | -3.31 ± 0.26 | -2.35 ± 0.23
13 | UAGUAGCAAUAUUACGAAAC | – | -2.13 ± 0.45
14 | UAGUAGCAAUAUUACGAAGU | -2.42 ± 0.24 | -2.07 ± 0.33
15 | UAGUAGCAAUAUUACGAAUA | -1.33 ± 0.23 | -0.977 ± 0.21
16 | UAGUAGCAAUAUUACGAAUC | -2.9 ± 0.48 | –
17 | UAGUAGCAAUAUUACGAAUU | -4.36 ± 0.36 | -2.27 ± 0.27
18 | UAGUAGCAAUAUUACGACGA | -0.284 ± 0.18 | 0.242 ± 0.16
19 | UAGUAGCAAUAUUACGACGU | -1.23 ± 0.11 | -0.175 ± 0.095
20 | UAGUAGCAAUAUUACGAGAC | – | -1.37 ± 0.39
21 | UAGUAGCAAUAUUACGAGCG | -0.586 ± 0.095 | 0.438 ± 0.12
22 | UAGUAGCAAUAUUACGAUAA | -3.02 ± 0.36 | -1.18 ± 0.2
23 | UAGUAGCAAUAUUACGAUGG | -2.93 ± 0.12 | -1.54 ± 0.11
24 | UAGUAGCAAUAUUACGAUUU | -1.45 ± 0.1 | -0.988 ± 0.12
25 | UAGUAGCAAUAUUACGCAAG | -2.78 ± 0.45 | -1.25 ± 0.24

Row | Sequence | self-splicing fitness (ln) (30 °C) | self-splicing fitness (ln) (37 °C)
26 | UAGUAGCAAUAUUACGCAUU | -3.97 ± 0.21 | -1.52 ± 0.14
27 | UAGUAGCAAUAUUACGCCGG | -1.64 ± 0.21 | -0.466 ± 0.24
28 | UAGUAGCAAUAUUACGCGGA | -3.56 ± 0.47 | -0.643 ± 0.17
29 | UAGUAGCAAUAUUACGCGUC | -3.22 ± 0.38 | -1.88 ± 0.36
30 | UAGUAGCAAUAUUACGCUUG | -0.659 ± 0.092 | -0.506 ± 0.13
31 | UAGUAGCAAUAUUACGGAAC | -2.97 ± 0.3 | -3.42 ± 0.42
32 | UAGUAGCAAUAUUACGGGAA | -2.79 ± 0.32 | -1.65 ± 0.29
33 | UAGUAGCAAUAUUACGGUCC | – | -1.53 ± 0.35
34 | UAGUAGCAAUAUUACGUACA | -1.05 ± 0.064 | -0.269 ± 0.081
35 | UAGUAGCAAUAUUACGUAGC | -3.52 ± 0.22 | -1.37 ± 0.2
36 | UAGUAGCAAUAUUACGUCAU | -3.57 ± 0.37 | –
37 | UAGUAGCAAUAUUACGUGAU | -3.84 ± 0.33 | -2.18 ± 0.28
38 | UAGUAGCAAUAUUACGUGGG | -3.26 ± 0.25 | -1.41 ± 0.17
39 | UAGUAGCAAUAUUACGUGUA | -3.16 ± 0.21 | -0.527 ± 0.12
40 | UAGUAGCAAUAUUACGUUAG | -1.52 ± 0.17 | -1.97 ± 0.21
41 | UAGUAGCAAUAUUACGUUCA | -0.66 ± 0.15 | 0.327 ± 0.15
42 | UAGUAGCAAUAUUACGUUCC | -4.21 ± 0.35 | -0.984 ± 0.19
43 | UAGUAGCAAUAUUACGUUGU | -4.09 ± 0.25 | -2.13 ± 0.14
44 | UAGUAGCAAUAUUACGUUUU | -3.14 ± 0.14 | -2.27 ± 0.16
45 | UAUAAGCAAUAUUACGAAGA | -2.72 ± 0.24 | -1.66 ± 0.16
46 | UAUAAGCAAUAUUACGACAG | -0.587 ± 0.11 | -0.0617 ± 0.15
47 | UAUAAGCAAUAUUACGACCU | 0.317 ± 0.2 | -0.146 ± 0.23
48 | UAUAAGCAAUAUUACGACUA | 0.0842 ± 0.075 | 0.29 ± 0.094
49 | UAUAAGCAAUAUUACGAGUC | -1.69 ± 0.32 | –
50 | UAUAAGCAAUAUUACGAGUG | 0.0329 ± 0.08 | -0.16 ± 0.099

Row | Sequence | self-splicing fitness (ln) (30 °C) | self-splicing fitness (ln) (37 °C)
51 | UAUAAGCAAUAUUACGCACU | 0.11 ± 0.12 | -0.923 ± 0.12
52 | UAUAAGCAAUAUUACGCCCA | -0.492 ± 0.13 | -0.495 ± 0.2
53 | UAUAAGCAAUAUUACGCCCG | 0.0737 ± 0.21 | 0.591 ± 0.3
54 | UAUAAGCAAUAUUACGCCGU | -1.41 ± 0.49 | –
55 | UAUAAGCAAUAUUACGCGAA | -1.09 ± 0.15 | -0.98 ± 0.16
56 | UAUAAGCAAUAUUACGCGGG | -2.17 ± 0.14 | -1.89 ± 0.18
57 | UAUAAGCAAUAUUACGCUGG | -1.44 ± 0.13 | -0.93 ± 0.18
58 | UAUAAGCAAUAUUACGCUUA | -1.88 ± 0.27 | -0.653 ± 0.2
59 | UAUAAGCAAUAUUACGGGCU | -2.64 ± 0.31 | -1.71 ± 0.31
60 | UAUAAGCAAUAUUACGGGUU | -3.04 ± 0.16 | -3.53 ± 0.23
61 | UAUAAGCAAUAUUACGGUAG | -1.59 ± 0.077 | -0.912 ± 0.095
62 | UAUAAGCAAUAUUACGGUGG | -1.67 ± 0.13 | -0.746 ± 0.13
63 | UAUAAGCAAUAUUACGUAUG | -1.31 ± 0.091 | -0.577 ± 0.12
64 | UAUAAGCAAUAUUACGUCGC | -3.29 ± 0.28 | -2.24 ± 0.37
65 | UAUAAGCAAUAUUACGUGUA | -1.48 ± 0.1 | -0.896 ± 0.1
66 | UAUCAGCAAUAUUACGACAU | -0.823 ± 0.012 | -0.0787 ± 0.032
67 | UAUCAGCAAUAUUACGAGGC | – | -2.77 ± 0.37
68 | UAUCAGCAAUAUUACGAUAC | -3.07 ± 0.28 | -1.85 ± 0.25
69 | UAUCAGCAAUAUUACGAUAU | -2.41 ± 0.11 | -1.64 ± 0.13
70 | UAUCAGCAAUAUUACGCAAG | -0.949 ± 0.074 | 0.273 ± 0.097
71 | UAUCAGCAAUAUUACGCACG | -0.349 ± 0.11 | 0.232 ± 0.14
72 | UAUCAGCAAUAUUACGCAGA | -1.57 ± 0.15 | -1.03 ± 0.1
73 | UAUCAGCAAUAUUACGCGAG | -0.712 ± 0.057 | -0.298 ± 0.071
74 | UAUCAGCAAUAUUACGCGGG | -0.936 ± 0.076 | -1.14 ± 0.098
75 | UAUCAGCAAUAUUACGCGUU | -1.7 ± 0.13 | -1 ± 0.17

Row | Sequence | self-splicing fitness (ln) (30 °C) | self-splicing fitness (ln) (37 °C)
76 | UAUCAGCAAUAUUACGCUCU | 0.148 ± 0.12 | 0.416 ± 0.13
77 | UAUCAGCAAUAUUACGCUGG | -3.15 ± 0.25 | -1.62 ± 0.21
78 | UAUCAGCAAUAUUACGGAUA | -2.17 ± 0.24 | -1.85 ± 0.31
79 | UAUCAGCAAUAUUACGGCGC | -2.69 ± 0.18 | -1.12 ± 0.21
80 | UAUCAGCAAUAUUACGGCGG | -0.918 ± 0.086 | 0.373 ± 0.093
81 | UAUCAGCAAUAUUACGGGAU | -3.78 ± 0.24 | -1.72 ± 0.14
82 | UAUCAGCAAUAUUACGGGCA | -0.0174 ± 0.066 | 0.193 ± 0.084
83 | UAUCAGCAAUAUUACGGGGA | -1.76 ± 0.094 | -0.643 ± 0.1
84 | UAUCAGCAAUAUUACGGGGC | -2.85 ± 0.18 | -2.59 ± 0.19
85 | UAUCAGCAAUAUUACGGGGG | -1.51 ± 0.092 | -1.11 ± 0.14
86 | UAUCAGCAAUAUUACGUAGC | -2.63 ± 0.16 | -1.42 ± 0.2
87 | UAUCAGCAAUAUUACGUAUU | -0.834 ± 0.078 | -0.815 ± 0.094
88 | UAUCAGCAAUAUUACGUCAC | -4 ± 0.31 | -1.83 ± 0.3
89 | UAUCAGCAAUAUUACGUCCG | -0.361 ± 0.11 | 0.121 ± 0.14
90 | UAUCAGCAAUAUUACGUCGC | – | -2.03 ± 0.33
91 | UAUCAGCAAUAUUACGUCUA | -0.033 ± 0.078 | 0.747 ± 0.1
92 | UAUCAGCAAUAUUACGUGUG | -0.333 ± 0.058 | 0.407 ± 0.076
93 | UAUGAGCAAUAUUACGAAAU | -3.68 ± 0.37 | –
94 | UAUGAGCAAUAUUACGAAUU | -2.36 ± 0.33 | -1.73 ± 0.32
95 | UAUGAGCAAUAUUACGACGA | -1.87 ± 0.36 | -1.62 ± 0.34
96 | UAUGAGCAAUAUUACGAGAC | -2.85 ± 0.39 | -2.4 ± 0.32
97 | UAUGAGCAAUAUUACGAGAU | – | -2.19 ± 0.3
98 | UAUGAGCAAUAUUACGAGCU | -2.71 ± 0.2 | -2.09 ± 0.42
99 | UAUGAGCAAUAUUACGAGUU | -3.21 ± 0.17 | -2.57 ± 0.24
